Test results reported in article PMC3751857.

Target: Gag of the HIV-1 YP- mutant (HIV-1 (pNL4-3))

## Flag-DUb-TSG101 (from UniProt P10220 15-260)
  release of HIV-1 YP- virus from 293T cells co-expressing Flag-DUb-TSG101 (Figure 2A, lane 3); inactive DUb*-TSG101 and DUb-TSG101 M95A had no effect: > 95%
